{
  "source": "the RNAGym collection of RNA variant scans (doi:10.1073/pnas.2313332121)",
  "parents": {"B1": {"name": "TPR t1 (parent)", "chain": "GACCAAUCUGCCCUCAGAGCUCGAGAACAUCUUCGGAUGCAGAGGAGGCAGGCUUCGGUGGCGCGAUAGCGCCAACGUCCUCAACCUCCAAUGCAUCCCACCACAUGAUGAUGCCUGAAGAGCCUUGGUUUUUUG"}},
  "data": [
    {"variants_of": "B1", "test": "polymerase ribozyme fitness, log enrichment relative to wild type (log ratio); higher = more active; in vitro selection for triplet polymerase activity", "in_short": "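Input and output libraries were sequenced on Illumina after a single in vitro selection round, run in triplicate on PCR-built, transcribed mutant libraries of each subunit of a heterodimeric triplet polymerase ribozyme. Selection annealed libraries to a biotinylated primer, the partner subunit and triplets, incubated them frozen at −7 °C, then gel-excised extended constructs for streptavidin-bead capture and RT-PCR. Genotypes with ≥10 input reads and ≥1 read per output were kept. Fitness is the logarithm, taken in base 2, of genotype enrichment divided by wild-type enrichment, using inverse-variance-weighted replicate averages.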", "values": [
      {"variant": "G10C G57C G117C", "polymerase ribozyme fitness (log ratio)": -4.35},
      {"variant": "C11G C22U G44U", "polymerase ribozyme fitness (log ratio)": -4.93},
      {"variant": "C11A G60C A95C", "polymerase ribozyme fitness (log ratio)": -1.9},
      {"variant": "C11A U132A", "polymerase ribozyme fitness (log ratio)": -2.12},
      {"variant": "C11A C73U C94U", "polymerase ribozyme fitness (log ratio)": -1.82},
      {"variant": "C11G A37U G71A C79A", "polymerase ribozyme fitness (log ratio)": -1.37},
      {"variant": "C11A G42A C86U U96A", "polymerase ribozyme fitness (log ratio)": -4.6},
      {"variant": "G10U A50U", "polymerase ribozyme fitness (log ratio)": -1.65},
      {"variant": "G10U U112G", "polymerase ribozyme fitness (log ratio)": 0.352},
      {"variant": "G10U C40U A41G A46C C64U", "polymerase ribozyme fitness (log ratio)": -5.98},
      {"variant": "G10U C22U G47A G63C U96A C123A", "polymerase ribozyme fitness (log ratio)": -5.69},
      {"variant": "C11A G52C U54C C94U G120C", "polymerase ribozyme fitness (log ratio)": 0.0193},
      {"variant": "C11A U21A C40U G47A C49A G57A G58C G61U", "polymerase ribozyme fitness (log ratio)": -5.81},
      {"variant": "C11G G23A C76U", "polymerase ribozyme fitness (log ratio)": -6.14},
      {"variant": "C11G C62U", "polymerase ribozyme fitness (log ratio)": -0.108},
      {"variant": "G10U C76A", "polymerase ribozyme fitness (log ratio)": -1.51},
      {"variant": "C11A C115G", "polymerase ribozyme fitness (log ratio)": -3.42},
      {"variant": "C11A C53U C56A G63A C76G", "polymerase ribozyme fitness (log ratio)": -3.79},
      {"variant": "G10A G58C A111G", "polymerase ribozyme fitness (log ratio)": 0.287},
      {"variant": "G10A G39U A90C U106A", "polymerase ribozyme fitness (log ratio)": -2.41},
      {"variant": "C11G C73A", "polymerase ribozyme fitness (log ratio)": 0.279},
      {"variant": "C11G C88G G93C", "polymerase ribozyme fitness (log ratio)": -3.14},
      {"variant": "G10U C20G C99U C115U", "polymerase ribozyme fitness (log ratio)": -8.2},
      {"variant": "C11A C49G U129C", "polymerase ribozyme fitness (log ratio)": -2.01},
      {"variant": "G10U U129C", "polymerase ribozyme fitness (log ratio)": -1.9},
      {"variant": "G10C C114U", "polymerase ribozyme fitness (log ratio)": -2.38},
      {"variant": "C11A C40G G42A G71A", "polymerase ribozyme fitness (log ratio)": -4.67},
      {"variant": "C11A G107A", "polymerase ribozyme fitness (log ratio)": -5.12},
      {"variant": "G10A C56U A74C A75U G93U", "polymerase ribozyme fitness (log ratio)": -0.9},
      {"variant": "G10U C82G C85U G120C", "polymerase ribozyme fitness (log ratio)": 0.866},
      {"variant": "G10C C13A C64U C82U A83C", "polymerase ribozyme fitness (log ratio)": -1.29},
      {"variant": "G10A G52A G60A C79A", "polymerase ribozyme fitness (log ratio)": -1.36},
      {"variant": "C11A C62U C94A", "polymerase ribozyme fitness (log ratio)": -2.43},
      {"variant": "C11G A66C", "polymerase ribozyme fitness (log ratio)": -0.842},
      {"variant": "C11A G45U A95C G113U", "polymerase ribozyme fitness (log ratio)": -7.14},
      {"variant": "C11G G39C A74U C115U", "polymerase ribozyme fitness (log ratio)": -2.3},
      {"variant": "C11G C82G G117C", "polymerase ribozyme fitness (log ratio)": -2.58},
      {"variant": "C11G C56G U106G", "polymerase ribozyme fitness (log ratio)": -0.581},
      {"variant": "G10U A18U C70U", "polymerase ribozyme fitness (log ratio)": -4.05},
      {"variant": "G10U C13U G61U", "polymerase ribozyme fitness (log ratio)": -0.215},
      {"variant": "G10A G63C", "polymerase ribozyme fitness (log ratio)": -0.414},
      {"variant": "G10U U87A U92C A121G U132C", "polymerase ribozyme fitness (log ratio)": 1.22},
      {"variant": "G10U C11U", "polymerase ribozyme fitness (log ratio)": 0.0495},
      {"variant": "C11G G39A C124A", "polymerase ribozyme fitness (log ratio)": 1.48},
      {"variant": "G10U G17A", "polymerase ribozyme fitness (log ratio)": -3.07},
      {"variant": "G10C C13G G61A U106G A118U", "polymerase ribozyme fitness (log ratio)": -2.68},
      {"variant": "C11A C53G G57A C123G", "polymerase ribozyme fitness (log ratio)": -1.45},
      {"variant": "G10U A16C G44C C70U A111C U125G", "polymerase ribozyme fitness (log ratio)": -7.14},
      {"variant": "C11A C64U", "polymerase ribozyme fitness (log ratio)": -1.04},
      {"variant": "G10C A83U U106G", "polymerase ribozyme fitness (log ratio)": -3.53},
      {"variant": "G10U C22G A46G C76A A118U", "polymerase ribozyme fitness (log ratio)": -4.37},
      {"variant": "G10A C73U U116C", "polymerase ribozyme fitness (log ratio)": -1.59},
      {"variant": "G10U C56A U59C U112A", "polymerase ribozyme fitness (log ratio)": -0.649},
      {"variant": "C11A C40U G69U A83G G117U G127C U133G", "polymerase ribozyme fitness (log ratio)": -4.24},
      {"variant": "C11G C28U C56A G60A U78G", "polymerase ribozyme fitness (log ratio)": -4.9},
      {"variant": "G10U C12A C49U A118U U131G", "polymerase ribozyme fitness (log ratio)": -1.34},
      {"variant": "C11G G47U C56U U112C G122A", "polymerase ribozyme fitness (log ratio)": -0.322},
      {"variant": "C11A G52A C73G", "polymerase ribozyme fitness (log ratio)": -2.98},
      {"variant": "C11G C64U", "polymerase ribozyme fitness (log ratio)": -0.506},
      {"variant": "C11G C56U U87C", "polymerase ribozyme fitness (log ratio)": 0.175},
      {"variant": "G10C G39A C56G G113U A118U", "polymerase ribozyme fitness (log ratio)": -4.76},
      {"variant": "C11A U55G C80U C104U G113A", "polymerase ribozyme fitness (log ratio)": -4.77},
      {"variant": "G10C U112A", "polymerase ribozyme fitness (log ratio)": 0.23},
      {"variant": "G10U A46C", "polymerase ribozyme fitness (log ratio)": -0.286},
      {"variant": "G10C C28G", "polymerase ribozyme fitness (log ratio)": -3.74},
      {"variant": "C11G C34U C49A C123U", "polymerase ribozyme fitness (log ratio)": -2.86},
      {"variant": "G10C U38C C40U C64U C101A", "polymerase ribozyme fitness (log ratio)": -1.8},
      {"variant": "C11G C12A C49U C85A A91C", "polymerase ribozyme fitness (log ratio)": -2.76},
      {"variant": "G10U C12U C31U C72U C85A G122A", "polymerase ribozyme fitness (log ratio)": -5.23},
      {"variant": "G10C C34A", "polymerase ribozyme fitness (log ratio)": -3.12},
      {"variant": "G10U A46C A74U G127C", "polymerase ribozyme fitness (log ratio)": -2.03},
      {"variant": "G10U C40A C64U U81C", "polymerase ribozyme fitness (log ratio)": -2.46},
      {"variant": "G10U C15U A91C U125A", "polymerase ribozyme fitness (log ratio)": -3.89},
      {"variant": "G10A C40U G69C C123G", "polymerase ribozyme fitness (log ratio)": -0.405},
      {"variant": "C11A C12A G71A C89G A90G C101U U133G", "polymerase ribozyme fitness (log ratio)": -4.22},
      {"variant": "C11G A16U G93U A100C C123U", "polymerase ribozyme fitness (log ratio)": -3.13},
      {"variant": "C11G C49A G52U U131A", "polymerase ribozyme fitness (log ratio)": -1.34},
      {"variant": "G10U C82G G117C", "polymerase ribozyme fitness (log ratio)": -4.93},
      {"variant": "C11A C73A U81C U125A", "polymerase ribozyme fitness (log ratio)": -3.38},
      {"variant": "G10U C73G", "polymerase ribozyme fitness (log ratio)": -0.976},
      {"variant": "C11G C40A", "polymerase ribozyme fitness (log ratio)": -1.54},
      {"variant": "G10U U14G U116C", "polymerase ribozyme fitness (log ratio)": -1.69},
      {"variant": "C11A C15U G44U C72A U129A U132C", "polymerase ribozyme fitness (log ratio)": -5.25},
      {"variant": "C11G C20U G63A", "polymerase ribozyme fitness (log ratio)": -2.21}
    ]}
  ]
}
